Like-named read-outs stand apart in the source and are kept apart here.
T1: rPvSPL2 (GST-PvSPL2) (Panicum virgatum, UniProt A0A8T0WHV5 1-470)
T1 sequence: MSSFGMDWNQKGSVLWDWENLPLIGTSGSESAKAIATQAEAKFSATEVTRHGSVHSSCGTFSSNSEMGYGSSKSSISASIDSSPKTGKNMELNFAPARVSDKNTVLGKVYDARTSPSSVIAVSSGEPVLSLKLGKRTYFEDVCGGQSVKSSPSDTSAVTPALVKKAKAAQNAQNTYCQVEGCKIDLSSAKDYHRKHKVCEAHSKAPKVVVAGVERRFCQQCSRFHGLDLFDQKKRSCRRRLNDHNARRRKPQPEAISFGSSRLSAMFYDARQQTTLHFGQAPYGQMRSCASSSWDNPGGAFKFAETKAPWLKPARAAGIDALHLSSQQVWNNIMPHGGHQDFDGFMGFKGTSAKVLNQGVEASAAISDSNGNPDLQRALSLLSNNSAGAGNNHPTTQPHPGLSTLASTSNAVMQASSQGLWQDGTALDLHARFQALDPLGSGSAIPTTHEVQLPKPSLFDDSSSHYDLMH

B1: PvLBO promoter probe 1 (site 1) (dsDNA)
DNA 1: CCCCCCAAACGTACTATTTACTAT
DNA 2: ATAGTAAATAGTACGTTTGGGGGG
B2: PvLBO promoter probe 2 (site 2) (dsDNA)
DNA 1: TACAATATTTGTACTGTCATAATA
DNA 2: TATTATGACAGTACAAATATTGTA

Legend:
[1] = biological target: T1, rPvSPL2 (GST-PvSPL2); assay: EMSA
[2] = biological target: T1, rPvSPL2 (GST-PvSPL2); assay: EMSA; remark: listed apart in the source

| Binder | binding result [1] | binding result [2] |
| --- | --- | --- |
| B1 | binds | – |
| B2 | – | binds |

From article PMC9321131
